In publication doi:10.1101/2025.08.07.669093 (bioRxiv, 2025):

Legend:
Assay in all cases: ITC
[1] = molecular target: Escherichia coli RelA, full-length (Escherichia coli (K-12 entry; strain …, UniProt P0AG20)
[2] = molecular target: Rel from Chlorobaculum tepidum, full-length (Chlorobaculum tepidum (TLS entry; …, UniProt Q8KC80)
[3] = molecular target: RelCt^R215E (Chlorobaculum tepidum)

Escherichia coli RelA, full-length (Escherichia coli, sequence (P0AG20 whole entry): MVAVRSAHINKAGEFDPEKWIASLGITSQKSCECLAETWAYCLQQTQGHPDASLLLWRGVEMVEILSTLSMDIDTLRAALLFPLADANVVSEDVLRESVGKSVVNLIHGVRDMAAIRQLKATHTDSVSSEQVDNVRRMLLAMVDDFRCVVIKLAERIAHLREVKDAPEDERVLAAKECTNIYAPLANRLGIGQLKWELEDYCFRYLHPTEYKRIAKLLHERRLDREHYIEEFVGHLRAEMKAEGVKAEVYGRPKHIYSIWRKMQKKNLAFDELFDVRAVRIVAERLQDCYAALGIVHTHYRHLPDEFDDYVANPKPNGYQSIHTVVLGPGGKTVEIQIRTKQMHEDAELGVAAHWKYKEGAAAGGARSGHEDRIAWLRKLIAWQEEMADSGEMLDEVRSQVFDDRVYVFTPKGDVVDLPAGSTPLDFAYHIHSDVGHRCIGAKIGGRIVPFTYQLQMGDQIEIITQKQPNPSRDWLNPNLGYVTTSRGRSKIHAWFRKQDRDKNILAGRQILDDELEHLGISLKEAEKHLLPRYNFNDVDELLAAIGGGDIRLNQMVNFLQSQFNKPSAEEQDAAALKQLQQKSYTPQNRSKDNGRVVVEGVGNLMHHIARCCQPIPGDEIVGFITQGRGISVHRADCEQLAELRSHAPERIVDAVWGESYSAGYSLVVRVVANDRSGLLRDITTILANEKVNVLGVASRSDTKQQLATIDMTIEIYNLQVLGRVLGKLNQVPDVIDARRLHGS

| Kd [1] | Kd [2] | Binder | also measured |
| --- | --- | --- | --- |
| – | – | Nb120 (VHH) VHH: QVQLVESGGGLVQPGGSLRLSCAASGTIRSLNAMAWYRQAPGKERELAARISSGGTTTYADSVKGRFTISRDNAKNTLYLQMNSLKPEDTAVYYCKANRFSTYGYRDDIWGQGTQVTVS | binding result [1]: no binding |
| 157 nM | – | Nb96 (VHH) VHH: QVQLQESGGGLVQAGGSLRLSCAASGSIFDIKVMAWYRQAPGKSRELVAVHASADDSTTYEKSVKGRFTISRDNAKNTVYLQMNSLKPEDTAIYYCNRIPNFTHWGQGTQVTVS | – |
| – | 186 nM | Nb898 (VHH) VHH: QVQLQESGGGLVQAGGSLRLSCAASGSIESINAMAWYRQAPGKPRELVAVIAKSDGSTTYAVPVKGRFTISRDDAKNTVYLQMNSLKPEDTAIYYCNKIPNFTYWGQGTQVTVSS | – |
| – | 21 nM | Nb585 (VHH) VHH: QVQLQESGGGLVQAGGSLRLSCAASGFTFEDYTIGWFRQAPGKEREGVSLISNSDGFTSYADSVKGQFTISSENAKNTVYLQMDNLKPEDTAVYYCAATEVLAHLMWRPSNWGYWGQGTQVTV | fold drop in affinity against RelCt [3]: 28 fold |
| 13 nM | – | Nb94 (VHH) VHH: QVQLVESGGGMVQPGGSLRLSCAASGFTFSTYSMGWFRQAPGQEREFVAAISWSGDSAYYADSVKGRFTISRDNAKNTVYLQMNSLKFEDTAVYYCNADLDGLGYDYWGQGTQVTVS | – |
